The data set concerns the molecule itself. In words: SEC; size-exclusion chromatography after elution from the His Trap Nickel column; estimated apparent molecular weight 113 kDa.

The values that follow come from publication PMC12808825, “Structural and functional modulation of human kynurenine aminotransferase I enhances selenium-driven redox metabolism for cancer therapy” (Redox Biology, 2025).

The stoichiometry N is the number of molecules, sites or subunits per partner or assembly.

B1: Human kynurenine aminotransferase 1 (hKYAT1), wild-type, recombinant (enzyme)
chain: MAKQLQARRLDGIDYNPWVEFVKLASEHDVVNLGQGFPDFPPPDFAVEAFQHAVSGDFMLNQYTKTFGYPPLTKILASFFGELLGQEIDPLRNVLVTVGGYGALFTAFQALVDEGDEVIIIEPFFDCYEPMTMMAGGRPVFVSLKPGPIQNGELGSSSNWQLDPMELAGKFTSRTKALVLNTPNNPLGKVFSREELELVASLCQQHDVVCITDEVYQWMVYDGHQHISIASLPGMWERTLTIGSAGKTFSATGWKVGWVLGPDHIMKHLRTVHQNSVFHCPTQSQAAVAESFEREQLLFRQPSSYFVQFPQAMQRCRDHMIRSLQSVGLKPIIPQGSYFLITDISDFKRKMPDLPGAVDEPYDRRFVKWMIKNKGLVAIPVSIFYSVPHQKHFDHYIRFCFVKDEATLQAMDEKLRKWKVEL
notes: human kynurenine aminotransferase 1 (KYAT1), wild type; The PDB entries are cited crystal structures of human KYAT1, not necessarily of this construct; also called KAT1; cysteine-S-conjugate beta-lyase 1; source: E. coli BL21, purified (His Trap Nickel column, size-exclusion chromatography)
B1: the “stoichiometry N” value is 2.
